First the molecules themselves.
B1: HDV Ribozyme (parent)
chain: GGCCGGCAUGGUCCCAGCCUCCUCGCUGGCGCCGGCUGGGCAACAUUCCGAGGGGACCGUCCCCUCGGUAAUGGCGAAUGGGACCCA

Experimental findings from the RNAGym collection of RNA variant scans (doi:10.7554/elife.80360) are described below.

The variants in the series derive from B1. Put plainly: self-cleavage, relative activity (ratio to wild type); higher = more cleavage; co-transcriptional.
For GGCCGGCAUGGUCCCAGCCUCCUCGCUGUCGCCGGCUGGGCAACAUUCCGAGGGGACCGUCCCCUCGGUAAUGGCGGAUGGGACCCA [G29U A77G], the self-cleavage was found to be 0.178.
The figure for GGCCGGCAUGGUCCCAGCCUCCUCGCUGUUGCCGGCUGGGCAACAUUCCGAGGGGACCGUCCCCUCGGUAAUGGCGAAUGGGACCCA [G29U C30U] is 0.0779; for GGCCGGCAUGGUCCCAGCCUCCUCGCUGUCGCCGGCUGGGCAACAUUCCGAGGGGACCGUCCCCUCGGUAAUGGCGAAAGGGACCCA [G29U U79A] it is 0.0386; for GGCCGGCAUGGUCCCAGCCUCCUCGCUGCCGCCGGCUGGGCAACAAUCCGAGGGGACCGUCCCCUCGGUAAUGGCGAAUGGGACCCA [G29C U46A] it is 0.178.
The figure for GGCCGGCAUGGUCCCAGCCUCCUCGCUGUCGCCGGCUGGGCAACAUUCCGAGGGGACCAUCCCCUCGGUAAUGGCGAAUGGGACCCA [G29U G59A] is 0.102.
The figure for GGCCGGCAUGGUCCCAGCCUCCUCGCUGCCGCCGGCUGGGCAACAUUCCGAGGGGACCGUCCCCUGGGUAAUGGCGAAUGGGACCCA [G29C C66G] is 0.
For GGCCGGCAUGGUCCCAGCCUCCUCGCUGUCGCCGGCUGGGCAACAUUUCGAGGGGACCGUCCCCUCGGUAAUGGCGAAUGGGACCCA [G29U C48U], the self-cleavage turned out to be 0.0959.
Regarding GGCCGGCAUGGUCCCAGCCUCCUCGCUGGAGCCGGCUGGGCAACAUUCCGAGGGGACCGUCACCUCGGUAAUGGCGAAUGGGACCCA [C30A C62A], the self-cleavage was 0.578.
The figure for GGCCGGCAUGGUCCCAGCCUCCUCGCUGCCGCCGGCUGGGCAACAUUCCGAGGGGACCGUCCCCUCGGUAAUGGCGAAUGGGACCGA [G29C C86G] is 0.133; for GGCCGGCAUGGUCCCAGCCUCCUCGCUGCCGCCGGCUGGGCAACAUUCCGAGGGGACCGUCCCCUCGAUAAUGGCGAAUGGGACCCA [G29C G68A] it is 0.163.
The value for GGCCGGCAUGGUCCCAGCCUCCUCGCUGGAGCCGGUUGGGCAACAUUCCGAGGGGACCGUCCCCUCGGUAAUGGCGAAUGGGACCCA [C30A C36U] was 0.148; that for GGCCGGCAUGGUCCCAGCCUCCUCGCUGUCGCCGGCUGGGCAAUAUUCCGAGGGGACCGUCCCCUCGGUAAUGGCGAAUGGGACCCA [G29U C44U] was 0.104; that for GGCCGGCAUGGUCCCAGCCUCCUCGCUGGAGCCGGCUGGGCAACAUUCCGAGGGGUCCGUCCCCUCGGUAAUGGCGAAUGGGACCCA [C30A A56U] was 0.727.
For GGCCGGCAUGGUCCCAGCCUCCUCGCUGCCGCCGGCUGGCCAACAUUCCGAGGGGACCGUCCCCUCGGUAAUGGCGAAUGGGACCCA [G29C G40C], the self-cleavage was found to be 0.18.
The value for GGCCGGCAUGGUCCCAGCCUCCUCGCUGUCGCCGGCUGGGCAACAUUCCGAGGGGACCGUCCCCUCGGAAAUGGCGAAUGGGACCCA [G29U U69A] was 0.0875.
Turning to GGCCGGCAUGGUCCCAGCCUCCUCGCUGCCGCCGGCUGGGCAACAUUCCGAGGGGACCGUCCCCUCGGUAAUGGCUAAUGGGACCCA [G29C G76U], the self-cleavage turned out to be 0.119.
Consider GGCCGGCAUGGUCCCAGCCUCCUCGCUGCCGCCGGCUGGGCAACAUUCCGAGGGGACCGUCCCCUCGGUAAUGGCCAAUGGGACCCA [G29C G76C], for which the self-cleavage is 0.0386.
The value for GGCCGGCAUGGUCCCAGCCUCCUCGCUGUCGCCGGCUGGGCAACAUUCCGAGGGGACCGUACCCUCGGUAAUGGCGAAUGGGACCCA [G29U C61A] was 0.089.
The value for GGCCGGCAUGGUCCCAGCCUCCUCGCUGCCGCCGGCUGGGCAACAUUCCGAGGGGACCGUCCCCUCGGUAAUGGCGAAUGGAACCCA [G29C G82A] was 0.117.
Consider GGCCGGCAUGGUCCCAGCCUCCUCGCUGGAGCCGGCUGGGCAACCUUCCGAGGGGACCGUCCCCUCGGUAAUGGCGAAUGGGACCCA [C30A A45C], for which the self-cleavage is 0.0678.
The figure for GGCCGGCAUGGUCCCAGCCUCCUCGCUGCCGCCGGCUGGGCAACAUUCCGAGGGGACCGUCCCCUCGGUAAUGGCGAAUGUGACCCA [G29C G81U] is 0; for GGCCGGCAUGGUCCCAGCCUCCUCGCUGCCGCCGGCUGGGCAACAUUCCGAGGGGACCGUCCCCUCGGAAAUGGCGAAUGGGACCCA [G29C U69A] it is 0.162; for GGCCGGCAUGGUCCCAGCCUCCUCGCUGUCGCCGGCUGGGCAACAUUCCGAGAGGACCGUCCCCUCGGUAAUGGCGAAUGGGACCCA [G29U G53A] it is 0.0432.
As for GGCCGGCAUGGUCCCAGCCUCCUCGCUGGAGCCGGCUGGGCAACAUUCCGAGGGGACCGUCCCCUCGGUAAUGGCGGAUGGGACCCA [C30A A77G], the self-cleavage was found to be 0.224.
GGCCGGCAUGGUCCCAGCCUCCUCGCUGGAGUCGGCUGGGCAACAUUCCGAGGGGACCGUCCCCUCGGUAAUGGCGAAUGGGACCCA [C30A C32U]: the self-cleavage came to 0.171.
Regarding GGCCGGCAUGGUCCCAGCCUCCUCGCUGUCGCCGGCUGGGCAACAUUCCGAGGGGACCGUCCCCUCGGUAAUGGCGAAUGUGACCCA [G29U G81U], the self-cleavage is 0.0554.
Consider GGCCGGCAUGGUCCCAGCCUCCUCGCUGUCGCCGUCUGGGCAACAUUCCGAGGGGACCGUCCCCUCGGUAAUGGCGAAUGGGACCCA [G29U G35U], for which the self-cleavage was 0.058.
The figure for GGCCGGCAUGGUCCCAGCCUCCUCGCUGUCGCCGACUGGGCAACAUUCCGAGGGGACCGUCCCCUCGGUAAUGGCGAAUGGGACCCA [G29U G35A] is 0.0744; for GGCCGGCAUGGUCCCAGCCUCCUCGCUGUCGCCGGCUGGGCAACAUUCCGAGGGGACCGACCCCUCGGUAAUGGCGAAUGGGACCCA [G29U U60A] it is 0.248.
As for GGCCGGCAUGGUCCCAGCCUCCUCGCUGUCGCCGGCUGGGCAACAUUCCGAAGGGACCGUCCCCUCGGUAAUGGCGAAUGGGACCCA [G29U G52A], the self-cleavage is 0.168.
The figure for GGCCGGCAUGGUCCCAGCCUCCUCGCUGUCGGCGGCUGGGCAACAUUCCGAGGGGACCGUCCCCUCGGUAAUGGCGAAUGGGACCCA [G29U C32G] is 0.0455; for GGCCGGCAUGGUCCCAGCCUCCUCGCUGGAGCCGGCUGGGCAACAUUCCGAGGGGACCGUCCCCUCGGUAAUGGCGAAUGGGUCCCA [C30A A83U] it is 0.0923.
